One test deals with UCP1. Briefly: UCP1 immunohistochemistry on adipose tissue sections. It counts as in vivo, Mus musculus. The following applies: day 7. The procedure: Tissues were fixed in 4% paraformaldehyde. Paraffin embedding and sectioning were done by the Dana-Farber/Harvard Cancer Center Research Pathology core facility. For UCP1 immunohistochemistry, slides were deparaffinized in xylene, hydrated in descending 95%, 80% and 70% ethanol, and rinsed in water before heat-mediated antigen retrieval in 10 mM, pH 6.0 sodium citrate buffer. Quenching of endogenous peroxidases was performed using peroxidase quenching solution (Invitrogen). Slides were blocked in 10% goat serum and incubated with rabbit polyclonal UCP1 antibody (Abcam, ab10983) at […] in PBS-T/1% BSA overnight at 4° C. Slides were washed in PBS-T and incubated with 1:500 donkey anti-rabbit IgG HRP-linked antibody (GE healthcare) before developing using a SuperPicture™ 3rd Gen IHC Detection Kit (Invitrogen). Hematoxylin was used as counterstain. […] Digital images were captured with a Nikon Digital Sight DS-Fil color camera and NIS-Elements acquisition software.

Another test relates to high fat diet-fed mice. Nature of the test: Whole body energy expenditure (CLAMS) and tissue weights. It is filed as in vivo, Mus musculus. The procedure: (§1) Glucose tolerance tests were performed on mice 7 days post-injection with adenovirus. […] Animals were fasted overnight and then received intraperitoneal glucose at […]. Energy expenditure was analyzed using a Comprehensive Lab Animal Monitoring System (Columbus Instruments). Cold exposure and thermoneutrality experiments were performed in Balb/c mice at 4° C. or 30° C., respectively. Total levels of cholesterol, free fatty acids, triglycerides and insulin were measured at the Core Facility at Joslin Diabetes Center.

The next test has as its system PKA signaling pathway. Briefly: Western blotting of PKA and related signaling in primary inguinal cells. The following applies: for PKA signaling after treatment with conditioned media: serum-free conditioned media from expressing cells, acute treatment (30 min), FIG. 10G. It is filed as cell-based, Mus musculus. The procedure: Inguinal and brown stromal-vascular fractions were obtained from 6 weeks old male or newborn mice (postnatal days 5-10) for white and brown fat cultures, respectively. Inguinal fat tissue was dissected and washed with PBS, minced and digested for 45 min at 37° C. in PBS containing 10 mM CaCl2), 2.4 U/ml dispase II (Roche) and 10 mg/ml collagenase D (Roche). Brown fat tissue was dissected, washed with PBS, minced and digested for 45 min at 37° C. in PBS containing 1.3 mM CaCl2, 123 mM NaCl, 5 mM KCl, 5.0 mM glucose, 100 mM HEPES, 4% BSA and 1.5 mg/ml collagenase B (Roche). Digested tissue was filtered through a 100-μm cell strainer and centrifuged at 600 g for 10 min. Pelleted inguinal stromal-vascular cells were grown to confluence and induced to differentiate by an adipogenic cocktail containing 0.02 μM insulin, 1 μM rosiglitazone, 5 μM dexamethasone, 0.5 μM isobuthylmethylxanthine. For differentiation of brown fat cells, 1 nM T3 and 125 μM indomethacin were also added to the adipogenic cocktail. Two days after induction, cells were maintained in adipocyte culture medium containing 0.02 μM insulin and 1 μM rosiglitazone. Where indicated, cells were treated with forskolin (10 μM), norepinephrine (100 nM) for 4 h or with recombinant proteins (1 μg/ml, R&D systems) for 24 h or for the indicated times. For adenoviral overexpression of Slit2-FL, Slit2-N, Slit2-C, LacZ or Cre, virus was added at day 2 of differentiation at a titer of 10^8 particles/well and cells were analyzed at day 6-7. Where indicated, cells were treated with the drugs Erlotinib (SelleckChem), Lapatinib (Santa Cruz), PD0325901 (Santa Cruz), Propranolol (SelleckChem), H89 dihydrochloride (Santa Cruz), SQ-22536 (Santa Cruz) for indicated time points and concentrations.
For Western blotting, homogenized tissues, whole cell lysates, or concentrated serum free conditioned medium were lysed in RIPA buffer containing protease inhibitor cocktail (Thermo Scientific) and phosphatase inhibitor cocktail (Thermo Scientific), separated by SDS-PAGE and transferred to Immobilon-P® membranes (Millipore). For Western blotting of plasma samples, 1 μl of plasma was prepared containing 2× sample buffer (Invitrogen) with reducing agent, boiled and analyzed using Western blot against V5, FLAG, or the indicated antibody. V5-antibody was from Life Technologies and anti-Flag M2-HRP (A8592) from Sigma Aldrich. Anti-Slit2 antibody used was from Abcam (Abcam ab134166). Phospho-PKA Substrate, phospho-PKC Substrate, phospho-ERK1/2, total ERK, phospho-AKT, total AKT, phospho-AMPK, total AMPK, phospho-ATGL, ATGL, phospho-EGFR and EGFR were from Cell Signaling. Protein array was from R&D Systems (Proteome Profiler Mouse Phospho-RTK Array Kit, ARY014). Silverstain (SilverQuest™ Silver Staining Kit, LC6070) was purchased from Thermo Fisher.
(In general: A western blot detects proteins with antibodies after separation by electrophoresis.)

The next test concerns diet-induced obese mice. Nature of the test: Intraperitoneal glucose tolerance test. It is filed as in vivo, Mus musculus. As to the method: as §1
Where [1] appears, read: 16-week high fat diet-fed mice, Slit2-C adenovirus vs LacZ.
Where [2] appears, read: Slit2-C-transduced cells, FIG. 10B.

B1: Slit2-C: ~50 kDa C-terminal cleavage fragment of Slit2 beginning at TSP (SEQ ID NO: 22); adenovirally expressed or purified FLAG-tagged protein (protein, listed as Homo sapiens)
chain: TSPCDNFDCQNGAQCIIRINEPICQCLPGYLGEKCEKLVSVNFVNKESYLQIPSAKVRPQTNITLQIATDEDSGILLYKGDKDHIAVELYRGRVRASYDTGSHPASAIYSVETINDGNFHIVELLTLDSSLSLSVDGGSPKVITNLSKQSTLNFDSPLYVGGMPGKNNVASLRQAPGQNGTSFHGCIRNLYINSELQDFRKMPMQTGILPGCEPCHKKVCAHGMCQPSSQSGFTCECEEGWMGPLCDQRTNDPCLGNKCVHGTCLPINAFSYSCKCLEGHGGVLCDEEEDLFNPCQMIKCKHGKCRLSGVGQPYCECNSGFTGDSCDREISCRGERIRDYYQKQQGYAACQTTKKVSRLECRGGCAGGQCCGPLRSKRRKYSFECTDGSSFVDEVEKVVKCGCARCAS
modifications: FLAG tag
notes: adenovirally expressed or purified FLAG-tagged protein
Regarding B1, the “UCP1 staining in inguinal white fat depots” value in the test on UCP1 (Slit2-C vs control animals, FIGS. 6E, 6G) was “multiple pockets of UCP1-positive cells”. Besides, in the test with high fat diet-fed mice (setting [1]), the body weight entry is recorded as “no observable difference”, the food intake entry is reported as “no observable difference”, the locomotor activity entry is given as “no observable difference” and the “respiratory exchange ratio (RER)” value is given as “no observable difference”. Moreover, in the test on high fat diet-fed mice (16-week high fat diet-fed mice, Slit2-C adenovirus vs LacZ, normalized to total body weight), the whole-body oxygen consumption entry is “induced”. The “mass of the brown and inguinal depots” value in the test with high fat diet-fed mice (day 7 post-injection, FIGS. 8F, 8I) was “reduction”. Besides, the “activation of protein kinase C (PKC) substrates and ATGL S406” value in the test with PKA signaling pathway (FIG. 10E) is given as “minimal”. Besides, in the test with PKA signaling pathway (Slit2-C overexpression, FIGS. 10B, 10F), the “protein levels of UCP1” value is listed as “increased”. In addition, in the test with PKA signaling pathway (setting [2]), the “phosphorylation of hormone sensitive lipase (HSL S660)” value is “induced” and the “total HSL” value was “unaffected”. The “phosphorylation of PKA substrates” value in the test on PKA signaling pathway (Slit2-C-transduced vs lacZ-transduced cells, FIG. 10B) is given as “robust phosphorylation”. Also, the “PKA signaling after treatment with conditioned media” value with PKA signaling pathway is recorded as “increased”. The “subset of PKA substrate phosphorylations after purified protein treatment” value with PKA signaling pathway (time-dependent and dose-dependent, FIGS. 10M, 11F) is on record as “increased”. In addition, the glucose tolerance result with diet-induced obese mice (diet-induced obese mice, circulating Slit2-C, day 7, FIG. 8G) was “dramatically improve”.

B2: Slit2: Slit family secreted extracellular matrix protein, full length ~180 kDa; used as commercial recombinant protein or adenovirally expressed (protein)
chain: QACPAQCSCSGSTVDCHGLALRSVPRNIPRNTERLDLNGNNITRITKIDFAGLRHLRVLQLMENRISTIERGAFQDLKELERLRLNRNNLQLFPELLFLGTAKLYRLDLSENQIQAIPRKAFRGAVDIKNLQLDYNQISCIEDGAFRALRDLEVLTLNNNNITRLSVASFNHMPKLRTFRLHSNNLYCDCHLAWLSDWLRQRPRVGLYTQCMGPSHLRGHNVAEVQKREFVCSGHQSFMAPSCSVLHCPAACTCSNNIVDCRGKGLTEIPTNLPETITEIRLEQNSIRVIPPGAFSPYKKLRRLDLSNNQISELAPDAFQGLRSLNSLVLYGNKITELPKSLFEGLFSLQLLLLNANKINCLRVDAFQDLHNLNLLSLYDNKLQTVAKGTFSALRAIQTMHLAQNPFICDCHLKWLADYLHTNPIETSGARCTSPRRLANKRIGQIKSKKFRCSGTEDYRSKLSGDCFADLACPEKCRCEGTTVDCSNQRLNKIPDHIPQYTAELRLNNNEFTVLEATGIFKKLPQLRKINFSNNKITDIEEGAFEGASGVNEILLTSNRLENVQHKMFKGLESLKTLMLRSNRISCVGNDSFIGLGSVRLLSLYDNQITTVAPGAFDSLHSLSTLNLLANPFNCNCHLAWLGEWLRRKRIVTGNPRCQKPYFLKEIPIQDVAIQDFTCDDGNDDNSCSPLSRCPSECTCLDTVVRCSNKGLKVLPKGIPKDVTELYLDGNQFTLVPKELSNYKHLTLIDLSNNRISTLSNQSFSNMTQLLTLILSYNRLRCIPPRTFDGLKSLRLLSLHGNDISVVPEGAFNDLSALSHLAIGANPLYCDCNMQWLSDWVKSEYKEPGIARCAGPGEMADKLLLTTPSKKFTCQGPVDITIQAKCNPCLSNPCKNDGTCNNDPVDFYRCTCPYGFKGQDCDVPIHACISNPCKHGGTCHLKEGENAGFWCTCADGFEGENCEVNIDDCEDNDCENNSTCVDGINNYTCLCPPEYTGELCEEKLDFCAQDLNPCQHDSKCILTPKGFKCDCTPGYIGEHCDIDFDDCQDNKCKNGAHCTDAVNGYTCVCPEGYSGLFCEFSPPMVLPRTSPCDNFDCQNGAQCIIRINEPICQCLPGYLGEKCEKLVSVNFVNKESYLQIPSAKVRPQTNITLQIATDEDSGILLYKGDKDHIAVELYRGRVRASYDTGSHPASAIYSVETINDGNFHIVELLTLDSSLSLSVDGGSPKVITNLSKQSTLNFDSPLYVGGMPGKNNVASLRQAPGQNGTSFHGCIRNLYINSELQDFRKMPMQTGILPGCEPCHKKVCAHGMCQPSSQSGFTCECEEGWMGPLCDQRTNDPCLGNKCVHGTCLPINAFSYSCKCLEGHGGVLCDEEEDLFNPCQMIKCKHGKCRLSGVGQPYCECNSGFTGDSCDREISCRGERIRDYYQKQQGYAACQTTKKVSRLECRGGCAGGQCCGPLRSKRRKYSFECTDGSSFVDEVEKVVKCGCARCAS
As to B2, the “iWAT UCP1 protein” value in the test with UCP1 (histological sections, i.v. Slit2 adenovirus) is “increased”. Besides, in the test with high fat diet-fed mice (full-length Slit2 adenovirus, FIGS. 9A-9E), the “energy expenditure, compared with Slit2-C experiments” value was “comparable results”. Also, the “PKA signaling after treatment with conditioned media” value in the test on PKA signaling pathway was “increased”. Moreover, in the test on diet-induced obese mice (full-length Slit2 adenovirus, FIG. 9F), the “glucose tolerance, compared with Slit2-C experiments” value is reported as “comparable results”.

Values taken from patent US12702694B2, “Methods for identification, assessment, prevention, and treatment of metabolic disorders using SLIT2” (Dana-Farber Cancer Institute, Inc., priority 2015, dated 2026).
